This data set is described as follows: soluble on expression in E. coli; label from the status in PepcDB or PDB records.
As to “MNEEILPILTVKDLNAGYLTNEKYIGIIHNINIELNRGKIVGITGLSGSGKTTLLKSILLETHIKSGEIIFNGKPIMPGDTKNYRRSVIYVPQNSLDSLDIIWPIEDQVKKILKQHNVVYDINKVSEIAKLIDLDISMLKLKSFEVSYGTRHKIVLLMSILMAKRDLVVLMDEPTLSQDAITAEGILNIIVKLAKDYGSSFIIVSSSPEPVFYASDFIYIMYGGWIVENGTPNDLSKWPKHPFTYEFINMLPAHKTRDRFPKFPMTEFSENGCPYSIYCKNKIKGCDSHINMFGEGHKYRCLNPVV”, the “soluble on expression in E. coli” value is reported as “not soluble”.
As for “GHHHHHHHHHHGLVPRGSHMNIQSIETYQVRLPLKTPFVTSYGRLEEKAFDLFVITDEQGNQGFGELVAFEQPDYVQETLVTERFIIQQHLIPLLLTEAIEQPQEVSTIFEEVKGHWMGKAALETAIWDLYAKRQQKSLTEFFGPTRRKIPVGISLGIQEDLPQLLKQVQLAVEKGYQRVKLKIRPGYDVEPVALIRQHFPNLPLMVDANSAYTLADLPQLQRLDHYQLAMIEQPFAADDFLDHAQLQRELKTRICLDENIRSLKDCQVALALGSCRSINLKIPRVGGIHEALKIAAFCQENDLLVWLGGMFESGVGRALNLQFASQPTFSFPGDISATERYFYEDIITEPFILEQGTMTVPQGLGIGVTLSQTNLLKYSQYQKIM”, the entry is “soluble”; as for “MNRTIDRSVPKLGVRSTRQRTAVVGVLKDLDYFASAKVIHQELTKRDLKVGLTTVYRTLQSLSEIEAVDVLHMSNGETLYRHCLSDEHHHHLVCTECGRTVEIDGGPVEKWAKEVAQLHGFQVTGHDAEIYGLCESCSAATE”, “not soluble”; as for “MNTQFSCVGCGKCCNDHHVPLTLLEARDWAADGGQVIILVEAFLGNGLGLPMQQREHAERRSCRVRSGATEAYVAITFAAYNVGPCRNLDEDQLCRIYQRRPLVCRIYPMEINPHIPLNPQAKECPPESWEQGPQLILGNELVDQELAELIRRSRQADRDDIHTKEAICALLGIRTTALKGDGFTAYLPDMGALANAIDQVQAAPPGAPGQPWRFHLSGDDIAGQVQAAGAQVVSETPLDYAFISLRAALEHHHHHH”, “soluble”.
As for “MGRSHHHHHHGSLVPRGSEQGSNVNHLIKVTDQSITEGYDDSDGIIKAHDAENLIYDVTFEVDDKVKSGDTMTVNIDKNTVPSDLTDSFAIPKIKDNSGEIIATGTYDNTNKQITYTFTDYVDKYENIKAHLKLTSYIDKSKVPNNNTKLDVEYKTALSSVNKTITVEYQKPNENRTANLQSMFTNIDTKNHTVEQTIYINPLRYSAKETNVNISGNGDEGSTIIDDSTIIKVYKVGDNQNLPDSNRIYDYSEYEDVTNDDYAQLGNNNDVNINFGNIDSPYIIKVISKYDPNKDDYTTIQQTVTMQTTINEYTGEFRTASYDNTIAFSTSSGQGQGDLPPEK”, the entry is “soluble”.
As for “MSFRIGRRCFSKQSYDAIIIGGGHNGLTAAAYLTKAGKKVCVLERRHVVGGAAVTEEIVPGFRFSRASYLLSLLRPVVMQELNLKKFGLRYHIRNPNSFTPIRNTHESLLLGMDMAENQKEIAKFSQRDAGNYPKYEHFISEIVHSFEQLMDYEPLDLQKPIHKLLPHLYLLFKTVQPLGLRNAVDFYELMTAPISKIMNKWFESDVLKATLGTDGVIGLAASPMDPGTGYVLLHHVIGGLDEHKGAWGYVYGGMGAVSNAIAECAKSHGAEIYTEQDVQEVLLDGNVAKGVRLSNGKELHSKIVMSNATPHVTFNHLVKKESLPEEFHRNINQIDYTSPVTKINVAVKELPNFLAKPNQGSEPMPHHQTTIHMNCENMQVVHDAVMDYKNGRYSRRPVIEMTIPSSVDRTIVDSADGHVVLLFTQYTPFSPKDGEWTEEKKTEYAKHVFSEIDAYAPNFSSSVIGYDILTPPDIQNTFGITGGNIFHGSMSLDQLYVSRPISKWSNYSTPIESLYLCGSGAHPGGGVTGAPGRLSALHALKHF”, the entry is “not soluble”; as for “MSRDPTYTINEHDLSFADGRFYVTFKADKSSETVRLNSSCLGNTIIKKLQVEDDNTMHDFVKPKVTTQQAFGLAQQVKELDLQLKDPKSDLWGKIKFNNKAMLVEYANKEMSSAIAQSAEQILLQVKSIDDERYSKFEQTLNGIKQTVKSESVESARTQLASMFDSRISGLDGKYSRLSQTIDSLSSRLDDGVGNYSTLSQKVSGIDLRVSNAANDVSRLSQTAQGLQSQITNANQNYSSLSQTVQGLQTTVRDNQSNATSRINQLSDLISTKVSKGDVETTIAQSYDKIAFAIRDKLPASKMSGSEIISAINLDRSGVKITGKNITLDGNSYISNAVIKDAHIANMDAGKINTGYLNANRIATEAITGEKIKMDYAFFNKLTANEGYFRTLFAKDIFATSVQSVTLSASKITGGVLAATNGASQWDLNNANMTFNRDATINFNSKNNALVRKDGTHTAFVHFSNATPKGYRGSALYASIGITSSGDGIDSASSGRFAGLRSFRYATGYNHTAAVDQTELYGDNVLIADDFNINRGFKFRPDKMEKVLDMNDLYAAVVALGRCWGHLANVGWNT”, “not soluble”; as for “GPGSMEREQLISSASQPRRTVQSPARWADSSLNEIPETPPESGGAGGKLCGRMSDCIRALQVSIQPIITVVSSGNGSRRNNGGGPTVTEPLVAGRMGEREASSPGRNSFNPPRTRSGRESQPQGTISAVSGPEQHSAEKAPASPITVAGEQRMSASRPASGLASVPATGAEGLAVDHLAPGSGGVPEASTNDIIRAVENDRGMLHTTEQLSAVLERLAEYLPIRVEVELDERGPGGDTSSNCFLHHLCLQILGPVRTTPHSALLGLLEDILLEDCVPTSLRISSIHFADVSFSVEPAPGMQSTEEANNVVSFDALPIFGFTTTRVASGDVAENEKVKKECTERFCAFAKNMLECYSHTTSVRLTRCCFTPSDLGRWLKLPLLQLRRLYFEKCPLTAAHLDALIRLARATSRQSGRGPAFQRLEELQLSGSLTEESVAAVLSYFSDELLDGEFALVSLRLPSLWLRVAQSHPILERQPSLIVTST”, “not soluble”.
Regarding “MRKNISENNGKRPGSVKSRFLVSAFAVFLVAYSQTGRSSEEVLEQYKSLFAQQQKEFEKQRQIIIEQGKEIEKLKSRLDSLITTQPTDRSPASNVAGKDGQRPPQVSSPSTPKTVVAGPVGKKNDQVQTRTVPGNLPAGPVGQAPPKQDEKPRPPEMPRLSDAVGGVLTRKGKIVVEPALEYAFTDSNRIFLDAFTFLPAIAIGLIDVRQVDQHSLMASIGARYGVTDRLEVEARVPYRARFDEQRSRPVSIGAGIDETFNASGNGLGDIEFAARYQLNSGAGGWPILVGNMRATVPTGKGPFDIKYAQAQGVPGAVFPTEVPTGSGFFSFEPSVTALYATDPAVFFANLAYNYNMGTTEKALDGSGDKFKVDPGYAVGMTFGMGFGINERSSFNIGYGHRHIFNTKINNRTLKGSQLDIGQLLLGYAFKYSQQTTLNFSIAIGTTDDAQDVRLSFRVPMTFLEHHHHHH”, the “soluble on expression in E. coli” value is reported as “soluble”.
As for “SKAAIYHAFSHKEAKDHDVQELGSQRAEAFVRAFLKQSIPHMSQEDCESHLQRKAVILEYFTRLKPRPRPKKKSKGLSAKQRRDMRLFDIKPEQQRYSLFLPLHELWKQYIRDLCNGLKPDTQPQMIQAKLLKADLHGAIISVTKSKCPSYVGVTGILLQETKHVFKIITREDHLKVIPKLNCVFTIEIDDFISYIYGSKFQLRASERSAKKFKAKGSIDL”, the “soluble on expression in E. coli” value was “soluble”.
“RLTRKEEWLREVLSSIREAIIVTNASGEIVLANPAASRLFMIEAARKRSIPVTNIEDAAMRELFERVQKRQSGIYNEELTAMTSKGKRTLKVTAVPVMRRGALFDGTVLVINDVT”: the “soluble on expression in E. coli” value is recorded as “not soluble”.
With “MVHEEDFKEGYILGFIEAEGSFSVSIKFQRDVFGGVRLDPVFSITQKNREVLEAIKEHLGIGRIMEKAGQPNTYVYVVDNFNELVKLINFLNKYADFMIVKKRQFLMFREIANGLVNGEHLHINGLKRLVKLAYELTKESEKGYRKYDLNHVLSIIDKWDLGRNVSTSL” the entry was “soluble”.
Regarding “MTVVIGLTGGIASGKSTVSQMFRELSIPVIDADIIAREVVEKGKPAYNKIVEVFGTEVLQEDGELDRPKLGSVVFYNEEKRLQLNKIVHPAVREEMNRQKEMYIKEGMQAVVLDIPLLFESKLTSLVDRVLVVAVKPHTQLERLMKRNNFSEEEATARIQSQMPLEEKVKNADEVINNDGTIMGTKTQLQAILKKWNIID”, the “soluble on expression in E. coli” value was “not soluble”.
On to GAMDAAVAPEERHLSKMQQNGYENPTYKFFEQMQN, for which the “soluble on expression in E. coli” value was “soluble”.
On to “MSLEDFAESEGGVKKKIPISLVTIRSAKLFDIPFIMRIEQASFREKYPRGLFLTFLESNPDTFLVAEYNGKVIGYVMGYLRPDMEGHIMSIAVDPNYRGNGIGKALMIAVINKLFKKGARWIGLEVRVSNVIAINLYKKLGFKITKRIYSYYSDGEDAFYMILTPEDWKRVNLEEGHHHHHH”, for which the “soluble on expression in E. coli” value is given as “soluble”.
As for “MAHHHHHHMERMSLAVVRQLDADHERGGIWYLSGHRDHVLSIAASSHGVFATCDAKGLGLLWKHDTSHSNSDPSHVSRISSEGPAIVAACFPSSTRLCTAQGNGRVGVWDIEASTEVQSLSRLPSRGKSVNWPVINALSAWESDLVAYGGDDGYLVLSSLAVRNPVVSVNLRVPITSVAAAATSLLVGDVLGNIRCFDTRTFKSLYCFQGHRGVVTSVSVKEDASLAVSYGMDDSLALWNALPFSLTTEDRLIHRGEFHQGDTKTLLRCDWATSGAALVPVSDGRVVYLSAPTLDGIRTILPGRHRREPAQCAAFIGDGYAVSSAETEVILQRI”, the “soluble on expression in E. coli” value is reported as “not soluble”.
Turning to “MLLMKTASKTNNSVRRNMNTHSAISELIAPWLELTDPKLAALVITHLELDSRLIKSGDTFVAIQGHAVDGRQFIDKAIAQGANLVLAEADAQHLNGWVEYRAGVPVIYLAELGQHLSELAGRLYGGHHNQLIGVTGTNGKTTITQLIAQWLELLGHKAAVMGTTGNGFLNALEPAANTTGNALQIQATLRDLAERGAQYTALETSSHGLVQGRVKKLHFVAGVFSNLSRDHLDYHGTMEAYAAAKFSLFSEHACQNAIINVDDAVGAQWVKQLPQAIGVSLVTKPNTAQAIWAREVAYAESGITLNFESSWGEGELHAPLIGEFNACNLLLALATLLSLGFEKSALLATAPKLRPVLGRMELFQREQKAKMVVDYAHTPDALEKALRALRVHCAGQLWAIVGCGGDRDRGKRPMMAAIAEQFADRVILTDDNPRSESPQAIVADMVAGLTYPERAHIEHHRFQAASYALQHAGAQDIILLAGKGHEDYQVLANETIHYSDRETAQQLLELQP”, the “soluble on expression in E. coli” value is “not soluble”.
Take “MPEPHPAPQPYTVAALYQFRALPDPAALRAELLALGERLELCGTLIVADEGINGTVAGSAAAIAELHAFLLASGFDRLEYKESQASEKPFKRYKVRLKKEIVTLGVPVAPREQVGTYLDPQAWNDLLADPEVIVVDTRNRYEVKAGTFQGAVDPEIDSFREFPAWVDEHLAGAEGKKIAMFCTGGIRCEKSTSLLLQKGFQDVYHLKGGILKYLEDVPQAQSRWDGECFVFDGRVTVGHGLQEGDAVMCHSCGWPLTAQERAHPQFEEGVSCEHCFDETTDVQKAAFRERQRMYEAGHLTLEHHHHHH”: the “soluble on expression in E. coli” value is recorded as “not soluble”.

Values taken from the DeepSol protein solubility set.
